Columns and labels:
[1] = molecular target: T1, cynomolgus CD3 delta and epsilon heterodimer (cynomolgus, UniProt Q95LI5 22-117; Q95LI8 22-105); assay: BLI (Octet QK384), monovalent format: B-body captured on Fc biosensor, untagged antigen as analyte
T1 construct: untagged monomer of the antigen in solution
Description: (§1) More specifically, monovalent binding affinity analysis was performed using the Octet^QK 384 (ForteBio) using Fc biosensors. Unlabeled B-body™ is first bound to the Fc biosensor at a concentration to yield approximately 1 nm response (typically 10 to 50 nM protein). The biosensors are then equilibrated in 10× Kinetic Buffer (ForteBio) to establish a baseline. The untagged monomer of each antigen is contacted with the antibody-coated sensors at concentrations ranging from 50 nm to 0.75 nM. The association response and dissociation were monitored and recorded. The resulting Kₒₙ and Koff was fit using the Octet analysis software.

[2] = molecular target: T1, cynomolgus CD3 delta and epsilon …; assay: BLI, monovalent format, B-body on Fc biosensor
Description: as §1

[3] = molecular target: T2, extracellular domain of human ROR2 (human, UniProt Q01974 34-403); assay: BLI, bivalent format, biotinylated antigen on streptavidin biosensor
T2 construct: bought protein; biotinylated in the bivalent assay format; also called Acro Cat. No. RO2-H52E5
T2 sequence (Q01974 34-403 limits assumed): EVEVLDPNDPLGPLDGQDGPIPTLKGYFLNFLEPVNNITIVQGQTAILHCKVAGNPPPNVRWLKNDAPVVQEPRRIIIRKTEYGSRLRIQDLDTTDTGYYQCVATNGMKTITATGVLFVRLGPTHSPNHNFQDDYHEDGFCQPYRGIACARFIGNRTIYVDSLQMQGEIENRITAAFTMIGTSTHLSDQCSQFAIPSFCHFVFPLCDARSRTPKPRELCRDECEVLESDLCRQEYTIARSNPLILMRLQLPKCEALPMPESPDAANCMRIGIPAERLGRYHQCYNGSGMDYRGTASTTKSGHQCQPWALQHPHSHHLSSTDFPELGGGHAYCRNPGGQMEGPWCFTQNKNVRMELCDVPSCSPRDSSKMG
Description: (§2) Bivalent binding analysis was performed using the Octet^QK 384 (ForteBio) using streptavidin biosensors. Biotinylated antigen was first bound to the streptavidin biosensor at a concentration to yield approximately 1 nm response (typically 10 to 50 nM biotinylated protein). The biosensors were then equilibrated in 10× Kinetic Buffer (ForteBio) to establish a baseline. The 1×2 B-body™ was contacted with the antigen-coated sensors at concentrations ranging from 50 nm to 0.75 nM. The association response and dissociation were monitored and recorded. The resulting Kₒₙ and Koff was fit using the Octet analysis software.
(§3) Next, the binding of the antibody to ROR1 and ROR2 was assessed using the monovalent and bivalent BLI binding assessments as described in Example 24.

[4] = molecular target: T3, extracellular domain of human ROR1 (human, UniProt Q01973 30-406); assay: as above
T3 construct: bought protein; biotinylated in the bivalent assay format; also called Acro Cat. No. RO1-H522y
T3 sequence (Q01973 30-406 limits assumed): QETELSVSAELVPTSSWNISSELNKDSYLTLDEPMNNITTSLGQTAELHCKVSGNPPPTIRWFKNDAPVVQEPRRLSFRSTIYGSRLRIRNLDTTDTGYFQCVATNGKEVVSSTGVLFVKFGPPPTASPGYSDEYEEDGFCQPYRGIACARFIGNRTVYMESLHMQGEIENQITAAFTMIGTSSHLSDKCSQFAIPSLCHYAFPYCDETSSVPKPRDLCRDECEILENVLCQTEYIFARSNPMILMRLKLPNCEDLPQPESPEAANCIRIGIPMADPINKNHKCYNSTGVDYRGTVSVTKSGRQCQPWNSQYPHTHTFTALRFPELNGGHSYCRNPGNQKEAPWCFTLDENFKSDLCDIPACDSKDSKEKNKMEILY
Description: as §2, §3

[5] = molecular target: T2, extracellular domain of human ROR2; assay: BLI, monovalent format
Description: as §1, §3

[6] = molecular target: T3, extracellular domain of human ROR1; assay: BLI, monovalent format
Description: as §1, §3

[7] = molecular target: T2, extracellular domain of human ROR2; assay: BLI (Octet QK384), monovalent format: B-body captured on Fc biosensor, untagged antigen as analyte
Description: as §1
(§4) Monovalent binding analysis was performed as described above and the antibody was captured with an Fc sensor and contacted with the indicated antigen for the association phase followed by a dissociation phase in buffer only.
as §3

[8] = molecular target: T3, extracellular domain of human ROR1; assay: as above
Description: as §1, §4, §3

[9] = molecular target: T2, extracellular domain of human ROR2; assay: BLI (Octet QK384), bivalent format: biotinylated antigen on streptavidin biosensor, 1x2 B-body as analyte
Description: as §2, §3

[10] = molecular target: T3, extracellular domain of human ROR1; assay: as above
Description: as §2, §3

T1 sequence (Q95LI5 22-117, stated change not applied, chain 1 of 2): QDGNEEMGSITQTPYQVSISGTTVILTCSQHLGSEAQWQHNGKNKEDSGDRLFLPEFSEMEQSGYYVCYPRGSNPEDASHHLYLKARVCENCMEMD
T1 sequence (Q95LI8 22-105, stated change not applied, chain 2 of 2): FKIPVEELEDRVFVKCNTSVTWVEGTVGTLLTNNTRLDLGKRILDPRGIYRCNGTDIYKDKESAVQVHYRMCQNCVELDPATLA

B1: I2-A10 D54E Y55Q 1×2 B-body™ (ROR1/ROR2xCD3) (bispecific antibody)
chain 1: DIQMTQSPSSLSASVGDRVTITCRASQSVSSAVAWYQQKPGKAPKLLIYSASSLQSGVPSRFSGSRSGTDFTLTISSLQPEDFATYYCQQYYYYPGTFGQGTKVEIKRTPREPQVYTLPPSRDELTKNQVSLKCLVKGFYPSDIAVEWESNGQPENNYKTTPPVLDSDGSFFLYSKLTVDKSRWQQGNVFSCSVMHEALHNHYTQKSLSLSKSCDKTHTCPPCPAPEAAGGPSVFLFPPKPKDTLMISRTPEVTCVVVDVSHEDPEVKFNWYVDGVEVHNAKTKPREEQYNSTYRVVSVLTVLHQDWLNGKEYKCKVSNKALKAPIEKTISKAKGQPREPQVCTLPPSREEMTKNQVSLSCAVKGFYPSDIAVEWESNGQPENNYKTTPPVLDSDGSFFLVSKLTVDKSRWQQGNVFSCSVMHEALHNHYTQKSLSLSPGK
chain 2: EVQLVESGGGLVQPGGSLRLSCAASGFTFSSYFIHWVRQAPGKGLEWVAGIYPSEGYTSYADSVKGRFTISADTSKNTAYLQMNSLRAEDTAVYYCARYYVSGMDYWGQGTLVTVSSASPREPQVYTDPPSRDELTKNQVSLTCLVKGFYPSDIAVEWESNGQPENNYKTTPPVLDSDGSFFLYSKLTVDKSRWQQGNVFSCSVMHEALHNHYTQKSLSLSGEC
chain 3: not shown
chain 4: EVQLVESGGGLVQPGGSLRLSCAASGFTFNTYAMNWVRQAPGKGLEWVARIRSKYNNYATYYADSVKGRFSISRDDSKNTAYLQMNSLRAEDTAVYYCVRHGNFGNSYVSWFAYWGQGTLVTVSSASTKGPSVFPLAPSSKSTSGGTAALGCLVKDYFPEPVTVSWNSGALTSGVHTFPAVLQSSGLYSLSSVVTVPSSSLGTQTYICNVNHKPSNTKVDKKVEPPKSC
notes: two ROR sites, one SP34-89 CD3 site; chain 5 is the same as chain 2; also called I2A-10 D54E Y55Q BC1 1×2
[1]
  koff: 0.00063 s⁻¹
  kon: 180000 M⁻¹ s⁻¹
[2]
  Kd: 3500 pM
[3]
  Kd: 3 pM
[4]
  Kd: 21 pM
[5]
  Kd: < 1 pM
[6]
  Kd: 460 pM
[7]
  koff: < 1e-07 s⁻¹
  kon: 140000 M⁻¹ s⁻¹
[8]
  koff: 0.00023 s⁻¹
  kon: 480000 M⁻¹ s⁻¹
[9]
  Kd: 3.3 pM
  kon: 1.4e+06 M⁻¹ s⁻¹
[10]
  koff: 1.1e-05 s⁻¹
  kon: 510000 M⁻¹ s⁻¹
